Assay results: EP4721730A1, “PHARMACEUTICAL COMPOSITION COMPRISING SUSTAINED-RELEASE MICROSPHERE COMPRISING CAGRILINTIDE OR PHARMACEUTICALLY ACCEPTABLE SALT THEREOF AND PREPARATION METHOD THEREFOR” (G2GBIO, Inc., priority 2023, dated 2024)

Assay: Pharmacokinetics of a single-dose subcutaneous administration using SD rats (concentration of cagrilintide in blood)
Format: in vivo
Conditions: s.c. 1.2 mg/head
Description: In order to evaluate a potential of the microsphere according to the present invention as a sustained-release therapeutic agent, the concentration of the cagrilintide in rat blood was measured by the following method.
Specifically, the microsphere was measured so that a dosage of the cagrilintide becomes 1.2 mg/head (API raw material solution, Example 5-6) or 3.6 mg/head (Comparative Examples 1 to 2, Examples 1-1 to 1-3, Example 5-1), dispersed in 0.5 mL of a suspension, and then subcutaneously injected into SD rats. 0.25 to 0.5 mL of blood was collected at prescheduled times and the concentration of the cagrilintide in blood was measured using HPLC.

Substance “cagrilintide [API raw material solution]” has a cumulative blood concentration (day 0, cagrilintide) of 0.0%, a cumulative blood concentration (day 0.042, cagrilintide) of 0.2% and a cumulative blood concentration (day 0.250, cagrilintide) of 4.5%. For the same substance, the cumulative blood concentration (day 1, cagrilintide) was 35.2%, the cumulative blood concentration (day 4, cagrilintide) was 91.1% and the cumulative blood concentration (day 7, cagrilintide) was 100.0%.
